The values that follow come from patent EP4707390A1 (PeptiDream Inc., dated 2026).

The test deals with T1, Recombinant human IgG1 Fc protein (110-HG, R&D Systems) (human, UniProt P01857-1 100-330 = IgG part).
T1 construct: domain: Fc; Bought protein; also called human IgG Fc protein; biotinylated Fc
As to the kind of experiment: display assay, conjugates on linker 1 or 3, biotinylated Fc on streptavidin magnetic beads against beads without Fc, real-time PCR.

B1: Fc-binding peptide encoded by the translation region of SEQ ID NO: 26 (peptide)
peptide: MPDCAYHKGELVWCTGGGGSS
modifications: C-terminus covalently bonded to the puromycin of the linker; sample treated with oxidized glutathione after reverse transcription
notes: Tested as an mRNA/cDNA-linker-peptide conjugate on monovalent linker 1 or divalent linker 3
On to B1, for which the binding result is given as “binds”.
